To fix the notation:
B1: peptide having residues 10-40 of hNogoA(#1055-1120) (peptide)
peptide: IQKSDEGHPFRAYLESEVAISEELVQKYSNS
B2: 140-AP (fusion protein containing AP and the 1-40 peptide, residues #1055-1094 of hNogoA) (ligand)
chain: RIYKGVIQAIQKSDEGHPFRAYLESEVAISEELVQKYSNS
modifications: also: fused to alkaline phosphatase (AP), order not given here
notes: not shown: alkaline phosphatase of vector pcAP-6
B3: NgRΔNT (residues 58 to 473 of mNgR) (receptor, not shown: small tags and cut ends)
chain: SSQRIFLHGNRISHVPAASFQSCRNLTILWLHSNALARIDAAAFTGLTLLEQLDLSDNAQLHVVDPTTFHGLGHLHTLHLDRCGLRELGPGLFRGLAALQYLYLQDNNLQALPDNTFRDLGNLTHLFLHGNRIPSVPEHAFRGLHSLDRLLLHQNHVARVHPHAFRDLGRLMTLYLFANNLSMLPAEVLMPLRSLQYLRLNDNPWVCDCRARPLWAWLQKFRGSSSEVPCNLPQRLADRDLKRLAASDLEGCAVASGPFRPIQTSQLTDEELLSLPKCCQPDAADKASVLEPGRPASAGNALKGRVPPGDTPPGNGSGPRHINDSPFGTLPSSAEPPLTALRPGGSEPPGLPTTGPRRRPGCSRKNRTRSHCRLGQAGSGASGTGDAEGS
notes: In pSecTag2, on COS-7 cells; vector tags as for wtNgR; also called amino terminus deletion
B4: NgLRR- (residues 306 to 473 of mNgR) (receptor, not shown: small tags and cut ends)
chain: LEGCAVASGPFRPIQTSQLTDEELLSLPKCCQPDAADKASVLEPGRPASAGNALKGRVPPGDTPPGNGSGPRHINDSPFGTLPSSAEPPLTALRPGGSEPPGLPTTGPRRRPGCSRKNRTRSHCRLGQAGSGASGTGDAEGS
notes: In pSecTag2, on COS-7 cells; also called complete LRR domain deleted
B5: murine NgR (Nogo-66 receptor) expressed on COS-7 cells (receptor)
chain: CPGACVCYNEPKVTTSCPQQGLQAVPTGIPASSQRIFLHGNRISHVPAASFQSCRNLTILWLHSNALARIDAAAFTGLTLLEQLDLSDNAQLHVVDPTTFHGLGHLHTLHLDRCGLRELGPGLFRGLAALQYLYLQDNNLQALPDNTFRDLGNLTHLFLHGNRIPSVPEHAFRGLHSLDRLLLHQNHVARVHPHAFRDLGRLMTLYLFANNLSMLPAEVLMPLRSLQYLRLNDNPWVCDCRARPLWAWLQKFRGSSSEVPCNLPQRLADRDLKRLAASDLEGCAVASGPFRPIQTSQLTDEELLSLPKCCQPDAADKASVLEPGRPASAGNALKGRVPPGDTPPGNGSGPRHINDSPFGTLPSSAEPPLTALRPGGSEPPGLPTTGPRRRPGCSRKNRTRSHCRLGQAGSGASGTGDAEGS
notes: Library clone or pcDNA3.1 construct transfected into COS-7 cells; GPI-linked protein, cleavage site of the GPI signal not applied here; also called mouse NgR; mNgR
B6: AP-Nogo (His-AP-Nogo, 66 amino acid) (ligand)
chain: HHHHHHIIPVEEENPDFWNREAAEALGAAKKLQPAQTAAKNLIIFLGDGMGVSTVTAARILKGQKKDKLGPEIPLAMDRFPYVALSKTYNVDKHVPDSGATATAYLCGVKGNFQTIGLSAAARFNQCNTTRGNEVISVMNRAKKAGKSVGVVTTTRVQHASPAGTYAHTVNRNWYSDADVPASARQEGCQDIATQLISNMDIDVILGGGRKYMFRMGTPDPEYPDDYSQGGTRLDGKNLVQEWLAKRQGARYVWNRTELMQASLDPSVTHLMGLFEPGDMKYEIHRDSTLDPSLMEMTEAALRLLSRNPRGFFLFVEGGRIDHGHHESRAYRALTETIMFDDAIERAGQLTSEEDTLSLVTADHSHVFSFGGYPLRGSSIFGLAPGKARDRKAYTVLLYGNGPGYVLKDGARPDVTESESGSPEYRQQSAVPLDEETHAGEDVAVFARGPQAHLVHGVQEQTFIAHVMAFAACLEPYTACDLAPPAGTTDAAHPGRIYKGVIQAIQKSDEGHPFRAYLESEVAISEELVQKYSNSALGHVNCTIKELRRLFLVDDLVDSLK
notes: also called AP fused Nogo-66

Test [1] deals with B5. The test is described as follows: binding to mNgR, data not shown.
Test [2] addresses B5. Description: 140-AP binding to COS-7 cells expressing mNgR, bound/free plot. On the procedure: To determine if AP-fused deletion mutants of Nogo-66 bind mouse NgR (“mNgR”), COS-7 cells were transfected with a plasmid encoding the mouse NgR sequence ligated into pcDNA3.1. 48 hours after transfection, cells were washed with HBH (Hanks balanced salt solution containing 20 mM sodium Hepes, pH 7.05, and 1 mg ml⁻¹ bovine serum albumin) and then incubated with condition medium containing one of the AP-fusion proteins described above for 2 hours at 37° C. Cells were then washed, fixed, and left in HBH at 67° C. for 14-16 h to inactivate endogenous AP. AP-fusion protein binding to NgR expressing COS-7 cells was detected with the substrates NBT and BCIP (FIG. 13b).
FIG. 14b graphically depicts the binding of 140-AP to COS-7 cells expressing mNgR as measured as a function of 140-AP concentration.

Test [3] concerns the target T1, AP-NgR (mNgR residues 27-451 fused to 6xHis-placental alkaline phosphatase) (mouse, UniProt P05187 23-511 (human entry)).
T1 construct: Soluble probe in the self-association test
The test is described as follows: AP-NgR binding to transfected COS-7 cells.

Test [4] concerns the target B6. The test is described as follows: AP-hNogo-A(1055-1120) binding to transfected COS-7 cells. As for the experimental part: Forty-eight hours after the transfection, the transfected COS-7 cells were washed with hanks balanced salt solution containing 20 mM sodium HEPES, pH 7.05, and 1 mg/ml bovine serum albumin (BSA) [hereinafter “HBH”]. […] AP-fusion protein was detected as previously described for AP-Sema3A (Takahashi et al., Nature Neurosci. 1:487-493, 1998).
Because the NgRΔ1-2, NgRΔ3-4, NgRΔ5-6, and NgRΔ7-8 deletions remove entire LRR domains it is unlikely that the entire tertiary structure of mNgR is disrupted.

Test [5] has as its target B6. Description: AP-Nogo binding to COS-7 cells transfected with the mouse NgR clone. The text has this: A Nogo binding assay was developed which utilizes a method widely used in examining semaphorin and ephrin axonal guidance function (Flanagan & Vanderhaeghen, (1998) Annu. Rev. Neurosci. 21, 309-345; Takahashi et al., (1999) Cell 99, 59-69). It involves fusing a secreted placental alkaline phosphatase (AP) moiety to the ligand in question to provide a biologically active receptor binding agent which can be detected with an extremely sensitive colorimetric assay. For Nogo, an expression vector was created encoding a signal peptide, a His6 tag for purification, AP and the 66 amino acid active domain of Nogo. The fusion protein can be purified from the conditioned medium of transfected cells in milligram amounts (FIG. 5). This protein is biologically active as a growth cone collapsing agent, with an EC₅₀ of 1 nM. […] Binding is blocked by GST-Nogo and by the antagonistic 25 amino acid peptides, consistent with competitive binding to a neuronal receptor site.
This assay was utilized for expression cloning of a NgR. Pools of a mouse adult brain cDNA expression library representing 250,000 independent clones were transfected into non-neuronal COS-7 cells. […] Single cDNA clones encoding a Nogo biding site were isolated by sib-selection from each of the two positive pools. […]

Test [6] addresses B6. Description: AP-fusion binding to COS-7 cells expressing mouse NgR.
Test [7] deals with T2, AP (alkaline phosphatase alone) (UniProt P05187 23-511).
T2 construct: Control without Nogo residues; also called AP alone
Description: AP binding to COS-7 cells transfected with the mouse NgR clone. From the text:
This assay was utilized for expression cloning of a NgR. Pools of a mouse adult brain cDNA expression library representing 250,000 independent clones were transfected into non-neuronal COS-7 cells. […] Single cDNA clones encoding a Nogo biding site were isolated by sib-selection from each of the two positive pools. The two independently isolated clones are identical to one another except for a 100 bp extension of the 5′ untranslated region in one clone. […] Furthermore, GST-Nogo displaces AP-Nogo from these sites.

Test [8] concerns the target T3, Nogo binding sites (axonal Nogo receptors) on chick dorsal root ganglion neurons (chick).
T3 construct: Target is defined only by the cells that carry it; also called neuronal receptor site
Description: AP-fusion ligand binding to dissociated neurons, Scatchard analysis. On the procedure:
Purified protein was subjected to SDS-PAGE and stained for total protein with CBB or immunoblotted with anti-Nogo antibodies (anti-Nogo). Molecular weight markers of 200, 116, 97, 65 and 45 kDa are shown at left, and the migration of AP-Nogo at right. (b) is a photograph of dissociated chick E12 dorsal root ganglion neurons that were incubated with 10 nM AP-Nogo or 10 nM AP-Nogo+160 nM GST-Nogo for sixty minutes at 23° C. The cells were washed, fixed and incubated at 60° C. in order to inactivate endogenous AP. Bound AP-Nogo was detected by incubation with nitro blue tetrazolium. Note the intense neuronal staining by AP-Nogo that is displaced by unlabeled ligand. (c) is a graph displaying experimental data where the potency of AP-Nogo and GST-Nogo in E12 chick dorsal root ganglion growth cone collapse assays was assessed as described in the Example section. […] The means±s.e.m. calculated from five to eight determinations are illustrated. (d) is a graph displaying experimental data where the binding of 10 nM AP-Nogo to chick E12 dorsal root ganglion neurons was assessed alone, or in the presence of 100 nM GST-Nogo or in the presence of 4 μM Pep2, which was quantified from experiments as in (b) by the method described in the Example section. The means±s.e.m. calculated from eight determinations are shown. […]

The target of test [9] is T3, Nogo binding sites (axonal Nogo …). Description: cell-based or functional assay.

Where no end group is shown, it is not given here.

In the case of B1, the binding result in test [1] is given as “no binding”.

As for B2, the dissociation constant Kd (usually a measure of binding affinity in units of concentration) in test [2] is 8 nM.

For B3, the binding result in [3] and in test [4] was “no binding” each time.

With B4, the binding result in test [3] and in test [4] was “no binding” each time.

Turning to B5, the values for the Kd in test [5] and in test [6] were around 3 nM and around 7 nM, respectively. The binding result in [7] is given as “no binding”.

B6 had a Kd in test [8] of 3 nM. In addition, the “growth cone collapse, chick E12 dorsal root ganglion (EC50)” value in test [9] worked out at 1 nM.

These data come from patent publication US20020077295A1 (YALE UNIVERSITY, published 2002).
